Publication PMC10934500, “Exploring the Anti-Diabetic Potential of Quercetagitrin through Dual Inhibition of PTPN6 and PTPN9” (Nutrients, 2024)

Tested on: Cc1cc(=O)oc2c(F)c(OP(=O)(O)O)c(F)cc12
Experiment: Michaelis-Menten kinetics (KM) with purified enzyme, fluorescence
Format: biochemical, Homo sapiens

Question: Which Km does the source give for PTPN6 (Homo sapiens) here?
Answer: 187.5 µM

Question: What about the Vmax of the same substance?
Answer: 10.8 µM/min

Question: What about the kcat of the same substance?
Answer: 30 s⁻¹

Question: And the kcat/Km?
Answer: 162000 M⁻¹ s⁻¹
